Consider one molecule from patent US20240409983A1 (published 2024).

The target of one experiment is 401-01R_6162-C57-1. The experiment in a line: NGS-count immunoassay, capture antibody titration, single-site binding fit; average Kd; antibody pair.
The target in a further experiment is 6162-H85-2t_6162-F78-2. The experiment in a line: NGS-count immunoassay, capture antibody titration; average Kd; antibody pair.
For the next experiment, the target named is 6162-B78-8_MAM02-008. The description is as above.

B1: Analyte (other)
chain: KLTIESTPFNVAEGKEVLLLVHNLPQHLFGYSWYKGERVDGNRQIIGYVIGTQQATPGPAYSGREIIYPNASLLIQNIIQNDTGFYTLHVIKSDLVNEEATGQFRVYPELPKPSISSNNSKPVEDKDAVAFTCEPETQDATYLWWVNNQSLPVSPRLQLSNGNRTLTLFNVTRNDTASYKCETQNPVSARRSDSVILNVLYGPDAPTISPLNTSYRSGENLNLSCHAASNPPAQYSWFVNGTFQQSTQELFIPNITVNNSGSYTCQAHNSDTGLNRTTVTTITVYAEPPKPFITSNNSNPVEDEDAVALTCEPEIQNTTYLWWVNNQSLPVSPRLQLSNDNRTLTLLSVTRNDVGPYECGIQNELSVDHSDPVILNVLYGPDDPTISPSYTYYRPGVNLSLSCHAASNPPAQYSWLIDGNIQQHTQELFISNITEKNSGLYTCQANNSASGHSRTTVKTITVSAELPKPSISSNNSKPVEDKDAVAFTCEPEAQNTTYLWWVNGQSLPVSPRLQLSNGNRTLTLFNVTRNDARAYVCGIQNSVSANRSDPVTLDVLYGPDTPIISPPDSSYLSGANLNLSCHSASNPSPQYSWRINGIPQQHTQVLFIAKITPNNNGTYACFVSNLATGRNNSIVKSITVSASGTSPGLSA
On to B1, for which the figures for the Kd with 401-01R_6162-C57-1, in the experiment with 6162-H85-2t_6162-F78-2 and in the experiment with 6162-B78-8_MAM02-008 were 0.906 nM, 0.352 nM and 1.94 nM, respectively.
